The text below walks through data of patent US20220226469A1 (ARCH ONCOLOGY, published 2022).

B1: SIRP4 (antibody, V domains shown)
VH: EVQLQQSGPDLVKPGASVKISCKASGYSFTDYFLNWVKQSHGKSLEWIGRINPYNGDSFINQNFRDKATLTVDKSSTTAHMDLLSLTSEDSAIYYCGRGGYDGYFIAYFDYWGQGSLVTVSA
VL: DIKLTQSQSSMYSSLGQRVTITCKASQDINSHLSWFQEKPGKSPKTLIYRANRLADGVPSRFSGSGSGQDYFLTISSLEYEDVGIYYCLQYDEFPYTFGGGTKLEIK
notes: anti-mouse secondary
B2: SIRP9 (antibody, V domains shown)
VH: EVQLQESGAELVRPGASVKLSCKALGYTFTDYEIHWVKETPVYGLEWIGDIHPGSGGTANNQKFKGKATLTADKSSNTAYMELSSLTSEDSAVYYCTRAVSGYYAMDYWGQGTSVTVSS
VL: DIQMTQSSSSFSGSLGDRLTINCKASEDIYDRVAWYQQKPGNAPRLLISGTASLETGVLSRFSGSGSGKDYTLSINGLQAEDVATYYCQQYWTTPWTFGGGTKLEIK
notes: anti-mouse secondary
B3: SIRP5 (antibody, V domains shown)
VH: QVQLQQSAAELARPGASVKMSCKASGYTFTSYTMHWVKQRPGQGLEWIGYINPTIGYTEYNQKFKDKTTLTADKSSSTAYMQLSSLTSEDSAVYYCVRLVITSVLGRAMDYWGQGTSVTVSS
VL: QIVLTQSPALMSASPGEKVTMTCSASSSVSYMYWFQQKPRSSPKPWIYLTSNLASGVPARFSGSGSGTSYSLTISSMEAEDAATYYCQQWSGNPFTFGSGTKLEIK
B4: KWAR-23 (antibody, V domains shown)
VH: EVQLQQSGAELVKPGASVKLSCTASGFNIKDYYIHWVQQRTEQGLEWIGRIDPEDGETKYAPKFQDKATITADTSSNTAYLHLSSLTSEDTAVYYCARWGAYWGQGTLVTVSA
VL: QIVLTQSPAIMSASPGEKVTLTCSASSSVSSSYLYWYQQKPGSSPKLWIYSTSNLASGVPARFSGSGSGTSYSLTISSMEAEDAASYFCHQWSSYPRTFGAGTKLELKR
B5: SIRP3 (antibody, mouse IgG1, kappa, V domains shown)
VH: EVQLQQSGPEVVKPGASVKMSCKASGYTFTSYVMHWVKQKPGQGLEWIGYINPYNDGPKYNEKFKGKATLTSDKSSSTAYMELSSLTSEDSAVYFCARWDYFNSASGFAFWGQGTLVTVSA
VL: EIVLTQSPTTMAASPGEKITIICSASSIIGSDFLHWYQQRPGFSPKFLIYRTSILASGVPTRFTGSGSGTSYSLTIGTMEAEDVATYYCQQGSGLPLTFGSGTKLEMKR
notes: Hybridoma-derived mouse mAb
B6: SIRP2 (antibody, mouse IgG1, kappa, V domains shown)
VH: EVKLVESGGGLVQPGGSLKLSCAASGFSFSGCTMSWIRQTPERRLEWVAYISNGGDITYYPDTVKGRFTISRDNAKNSLYLQMSSLKSEDTAMYYCARLDGYYYAMDFWGQGTSVTVSS
VL: DILLTQSPAILSVSPGERVSFSCRASQSIGTSIHWYQQRTNGSPRLLIKYGSESISGIPSRFSGSGSGTDFTLSINSVESEDIADYYCQQSNTWPLTFGDGTKLELKR
notes: Hybridoma-derived mouse mAb
B7: SIRP7 (antibody, V domains shown)
VH: EVQLQQSGPELVKPGASVKMSCRASGYTFSTYVMHWIKHRPGQGLEWIGYINPNNDGPNYNEKFKGKATLTSDISSSTAYMELSSLTSEDSAVYFCSRWDSYNSAAGFAYWGHGTLVTVSA
VL: EIVLTQSPTTMAASPGEKITIICSASSSISSNFLHWYQQKPGFSPRFLIYRTSILASGVPTRFSGSGSGTSYSLTIDTMEAEDVATYYCQQGSGLPLTFGSGTKLEIK

T1 sequence (P78324 other isoform, or with tags, fused parts or gaps): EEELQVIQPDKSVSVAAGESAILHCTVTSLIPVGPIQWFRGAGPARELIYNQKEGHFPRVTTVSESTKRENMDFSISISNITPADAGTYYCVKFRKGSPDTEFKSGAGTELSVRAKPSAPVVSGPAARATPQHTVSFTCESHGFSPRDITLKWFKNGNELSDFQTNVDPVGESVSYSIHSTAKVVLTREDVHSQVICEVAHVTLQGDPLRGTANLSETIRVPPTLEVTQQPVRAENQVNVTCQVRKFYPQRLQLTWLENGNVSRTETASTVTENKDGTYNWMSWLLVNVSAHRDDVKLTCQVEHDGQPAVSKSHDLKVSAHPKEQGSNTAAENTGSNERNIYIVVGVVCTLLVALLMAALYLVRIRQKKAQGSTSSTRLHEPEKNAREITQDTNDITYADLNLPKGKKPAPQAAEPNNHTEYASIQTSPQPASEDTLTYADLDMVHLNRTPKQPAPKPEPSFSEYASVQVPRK

One experiment addresses T1, human SIRPα expressed on cells (THP-1 cells, human monocyte-derived macrophages, dendritic cells) (human, UniProt P78324 31-504).
T1 construct: Endogenous SIRPα of cell line or donor cells; also called cell-expressed SIRPα; macrophage expressed SIRPα
The experiment in a line: flow cytometry on human monocyte-derived macrophages; apparent Kd. On the procedure:
(§1) Human CD14⁺ monocytes, isolated from peripheral blood mononuclear cells (Astarte Biologics) were differentiated in vitro for seven days into macrophages or dendritic cells. For macrophage differentiation, monocytes were incubated in AIM-V media (Life Technologies) supplemented with 50 ng/ml M-CSF (Biolegend) for seven days. For dendritic cell differentiation, monocytes were incubated in AIM-V media (Life Technologies) in the presence of 10% human AB serum (Valley Biomedical), 200 ng/ml GM-CSF (Biolegend) and 50 ng/ml IL-4 (Biolegend). The cells were incubated for 1 h at 37° C., 5% CO₂ with serial dilutions of SIRP mAbs in binding buffer containing 1 mM EDTA (Sigma Aldrich) and 1% FBS (Biowest) in PBS (Corning). The cells were then washed and stained for 45 min under the same conditions with donkey anti-mouse IgG fluorescein isothiocyanate (FITC)-linked secondary antibody (Jackson ImmunoResearch Laboratories). The cells were subsequently stained with anti-CD14 or anti-CD11c conjugated to Alexa Fluor 647 fluorophore (Life Technologies and Biolegend, respectively) for 30 min on ice, washed and analyzed by flow cytometry (Attune, Life Technologies). Binding was assessed as the median FITC fluorescence intensity of CD14⁺ or CD11c⁺ cells, subtracted from cells stained with the secondary antibody only.
On the technique in general: Flow cytometry measures light scatter and fluorescence of single cells or particles in a stream.
On to B1, for which the Kd worked out at 0.0207 nM.

Take B2: the Kd came to 0.0937 nM.

Another experiment has as its target T1, human SIRPα expressed on cells (THP-1 …). The experiment in a line: flow cytometry on human monocyte-derived dendritic cells; apparent Kd. On the procedure: as §1
With B3, the Kd turned out to be 0.77 nM.

B4: the Kd turned out to be 0.0234 nM.

As for B1, the Kd was determined as 0.05 nM.

For B5, the Kd was 0.00347 nM.

Another experiment deals with T2, HIS tagged human SIRPα (ACRO #SIG-H5225) (human, UniProt P78324 31-373).
T2 construct: Bought protein; also called Histidine (HIS) tagged human SIRPα; not shown: histidine tag
T2 sequence (P78324 31-373 limits assumed): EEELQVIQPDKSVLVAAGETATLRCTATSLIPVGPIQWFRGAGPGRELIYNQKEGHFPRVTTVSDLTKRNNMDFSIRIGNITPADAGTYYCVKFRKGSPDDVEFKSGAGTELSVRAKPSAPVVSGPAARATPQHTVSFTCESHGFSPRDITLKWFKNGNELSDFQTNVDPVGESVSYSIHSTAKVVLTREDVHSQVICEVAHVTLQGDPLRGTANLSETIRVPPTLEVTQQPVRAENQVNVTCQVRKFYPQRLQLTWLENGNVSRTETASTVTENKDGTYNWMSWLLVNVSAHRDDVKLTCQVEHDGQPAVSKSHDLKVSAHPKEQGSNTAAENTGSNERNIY
Kind of experiment: blocking ELISA on plate-coated HIS tagged human SIRPα; competitor Fc tagged human CD47 (250 ng/ml). On the procedure: HIS tagged human SIRPα (ACRO #SIG-H5225) is adsorbed to high-binding microtiter plates at a concentration of 1 μg/ml diluted in PBS overnight at 4° C. The coating solution is removed, the wells are washed and then blocked with […] in PBS containing 0.5% Tween 20 (PBST) for 60 minutes at room temperature while shaking. Blocking solution is removed, the wells are washed and incubated for 60 minutes at room temperature while shaking with anti-SIRP mAbs diluted in PBST at a starting concentration of 30 μg/ml and reducing the concentration by 3-fold serial dilutions. Wells are washed three times with PBST and incubated for 60 minutes at room temperature while shaking with an FC tagged human CD47 (ACRO #CD7-H5256) at a concentration of 250 ng/ml in PBST. Wells are washed three times with PBST and incubated for 60 minutes at room temperature while shaking with an HRP labeled donkey anti-mouse or anti-human secondary antibody (Jackson ImmunoResearch Laboratories) diluted 1:20,000 in PBST. The wells are washed and then incubated with peroxidase substrate and the absorbance at 450 nm determined. The IC₅₀ was calculated using a non-linear fit model (GraphPad Prism).
The IC50 is the concentration needed to halve the response being measured. A higher IC50 goes with a need for much substance. B6 showed an IC50 of 3 nM.

Take B7: the IC50 stood at 1.1 nM.

Regarding B1, the IC50 was 0.71 nM.

Consider B5, for which the IC50 is 2.7 nM.
